In data set [1] the test system is neutrophils purified from wild-type (WT) mice. Briefly: fMLP-induced neutrophil polarization (ruffling). The format is cell-based, mouse. The note with it: fMLP 1 μM, FIG. 10. How it is done:
FIG. 10A is a series of images showing chemoattractant-induced neutrophil ruffling. Neutrophils (2×10^5) purified from wild-type (WT) mice were plated on LABTEK chamber slides and cultured in RPMI-1640 in the presence or absence of Rac1 inhibitor for 60 minutes. Cells were then uniformly stimulated with N-formyl-met-leu-phe (fMLP, 1 μM). Images were taken 5 minutes after the fMLP stimulation (400×). FIG. 10B is a bar graph showing the percentage of cells that ruffled or extended pseudopods, calculated from images captured 5 minutes after stimulus was added. At least 200 cells were assessed for each sample in each experiment. Data are represented as mean±SD of three experiments. **p<0.001 versus untreated neutrophils.

Data set [2] relates to neutrophils. Particulars: 20 hours at 37° C. in anoxic culture medium with 3 mM glucose and 32 mg/mL DMOG; from about 1 day; cited from earlier work.
In data set [3] the test system is murine neutrophils. Briefly: In vitro neutrophil death / survival of cultured murine neutrophils. Particulars: for healthy neutrophils remaining: mouse, G-CSF alone. It counts as cell-based, mouse.
Data set [4] relates to caspases. The note with it: pan-caspase inhibitor; cited from earlier work.
The subject of data set [5] is cells. The note with it: even at extremely high concentrations; cited from earlier work.
Data set [6] concerns murine neutrophils. Briefly: In vitro phagocytosis assay, murine neutrophils. The format is cell-based, mouse. Particulars: after one day of culture. The protocol: In vitro phagocytosis assay: […] pHrodo Red E. coli BioParticles or Zymosan A S. cerevisiae BioParticles (INVITROGEN) were reconstituted in phosphate-buffered saline (PBS) and opsonized with 10% serum at 37° C. for 30 minutes. Neutrophils were incubated with serum-opsonized bioparticles at a ratio of 1:10 (neutrophils:bioparticles) at 37° C. for 0.5 hours. APC-Ly6G (BIOLEGEND, 1A8, 0.2 μg/mL) or APC-CD16 (BIOLEGEND, 51.1, 0.2 μg/mL) antibody was added to the sample to label mouse or human neutrophil membranes. The labeling was achieved by incubating the samples at room temperature for 3 minutes. The number of internalized particles was counted under a spinning disk confocal microscope ([…] VOX). Phagocytosis efficiency was expressed as the percentage of neutrophils that engulfed at least one bioparticle. Phagocytosis index was expressed as the average number of internalized particles per cell. At least 200 cells were counted from random fields per coverslip for each group.

The subject of data set [7] is transfused neutrophils. Nature of the data set: In vivo recruitment of transfused neutrophils in a mouse peritonitis model. Particulars: 1-day-old neutrophils. The protocol: In vivo recruitment of transfused neutrophils in a mouse peritonitis model: Freshly isolated CD45.1^+ or CLON-G-treated (1 day) GFP^+ bone marrow neutrophils were mixed (1:1, a total of 5×10^6/mouse) and injected intravenously into neutropenic recipient mice challenged with TG for 1 hour. At the indicated time points after cell injection, peritoneal cells were harvested by peritoneal cavity lavage with 5 mL of ice-cold PBS/15 mM EDTA, flushed back and forth three times. The relative amount of transfused freshly isolated CD45.1^+ and CLON-G-treated (1 day) GFP^+ neutrophils were analyzed by flow cytometry using a BD FACSCANTO II flow cytometer as described above.

Data set [8] relates to transfused neutrophils. Briefly: In vivo recruitment of transfused neutrophils in bacterial pneumonia. Further details: species or system mouse. The note with it: lungs. How it is done: In vivo recruitment of transfused neutrophils in bacterial pneumonia: Freshly isolated or CLON-G-treated bone marrow neutrophils were labeled with carboxyfluorescein diacetate succinimidyl ester (CFSE, 5 μM) or seminaphthorhodafluor-1 acetate (SNARF-1, 5 μM) at 37° C. for 10 minutes; labeled cells were mixed (1:1, a total of 5×10^6/mouse) and transfused via the tail vein into the same neutropenic recipient mice challenged with 5×10^3 cfu E. coli for 4 hours. Whole lungs were homogenized 3 hours after neutrophil transfusion. The number of adoptively transferred neutrophils recruited to the lungs was analyzed using a FACSCANTO II flow cytometer and […] software. Relative recruitments of CLON-G-treated and freshly isolated neutrophils were calculated as the ratio of the indicated populations.

The test system of data set [9] is E. coli. Nature of the data set: Neutropenia-related E. coli-induced pneumonia model (GTX). It counts as in vivo, mouse.
Data set [10] relates to neutrophils in the granulocyte apheresis concentrates. Briefly: Survival and function of neutrophils from human granulocyte apheresis concentrates. It counts as cell-based. The note with it: cultured for only 1 day, FIG. 6K. How it is done:
Accordingly, the donors were stimulated in the evening and granulocyte collection was carried out the next morning. Neutrophil harvesting was accomplished through the process of apheresis in which red blood cells (RBCs) and plasma were returned to the donor. To collect enough cells for GTX, standard continuous flow apheresis was performed for 1 to 1.5 hours to process 3.5 to 5 liters of blood. Citrate was used as the anticoagulant during collection and calcium gluconate was added to the return line to counteract the citrate-induced hypocalcemic symptoms in the donor. […] The purity was >97% as determined by both Wright-Giemsa staining and flow cytometry analysis with CD15 and CD16 antibodies. […] No contamination of hematopoietic progenitor cells (HPCs) was detected. […] The total initial cell number was counted using a hemocytometer before culture or treatment. At each indicated time point, the total cell number was counted again. […] Apoptotic cells were detected by Annexin V-fluorescein isothiocyanate (FITC) and propidium iodide (PI) staining using an Annexin V Detection Kit (BD BIOSCIENCES) following the manufacturer's protocol. Flow cytometry was performed using a FACSCANTO II flow cytometer and analyzed using […] software (BD BIOSCIENCES). […] Chemotaxis velocity and directionality were analyzed; see e.g., Jia et al. 2007, supra. […]

In data set [11] the test system is transfused human neutrophils. Briefly: Survival and function of transfused human neutrophils in vivo in NSG mice.
Data set [12] has as its system human neutrophils. Briefly: In vitro neutrophil death / survival of cultured human neutrophils. The note with it: G-CSF alone.

The text below walks through data of patent publication US20240287457A1, “COMPOSITIONS AND CELL CULTURE MEDIA FOR INCREASING NEUTROPHIL LIFESPAN” (THE CHILDREN'S MEDICAL CENTER CORPORATION, priority 2021, published 2024).

Take `CCN(CC)CCCC(C)Nc1nc(C)cc(Nc2ccc3nc(C)cc(N)c3c2)n1` (centres unmarked) [NSC23766]: the fMLP-induced neutrophil polarization entry in data set [1] is listed as “effectively inhibited”.

For `COC(=O)CNC(=O)C(=O)OC` [DMOG, dimethyloxalylglycine], the “neutrophil half-life in vitro” value in data set [2] was 48 h.

As to `C[C@H](NC(=O)C(=O)Nc1ccccc1C(C)(C)C)C(=O)N[C@@H](CC(=O)O)C(=O)COc1c(F)c(F)cc(F)c1F` [Emricasan, N-[2-(1,1-dimethylethyl)phenyl]-2-oxoglycyl-N-[(1S)-1-(carboxymethyl)-2-oxo-3-(2,3,5,6-tetrafluorophenoxy)propyl]-L-Alaninamide, reference compound], in data set [3] (in combination with NAC, Hsp70, DFO, G-CSF, and optionally a RIPK1 inhibitor, FIG. 23, murine bone marrow neutrophils), the “lifespan of cultured neutrophils” value was “prolonged the lifespan”. Moreover, the activity in vitro entry in [4] is “sub- to nanomolar”.

For `CC(C)C(NC(=O)c1ccc2ccccc2n1)C(=O)NC(CC(=O)O)C(=O)COc1c(F)cccc1F` (stereo not drawn) [Q-VD-Oph, Quinoline-Val-Asp-Difluorophenoxymethylketone], in data set [5], the toxicity to cells result was “not toxic”.

B1: G-CSF: granulocyte colony-stimulating factor (AMGEN, NEUPOGEN), PI3K/Akt pathway stimulator (protein, listed as Homo sapiens)
chain: MTPLGPASSLPQSFLLKCLEQVRKIQGDGAALQEKLCATYKLCHPEELVLLGHSLGIPWAPLSSCPSQALQLAGCLSQLHSGLFLYQGLLQALEGISPELGPTLDTLQLDVADFATTIWQQMEELGMAPALQPTQGAMPAFASAFQRRAGGVLVASHLQSFLEVSYRVLRHLAQP
Turning to B1, the healthy neutrophils remaining in data set [3] (after 1 day of treatment) is approximately 40%; in [3] (after 3 days of treatment) it was approximately 15%; in [12] (after 1 day of treatment), “about 55%”; in data set [12] (after 3 days of treatment), approximately 15%. Moreover, the phagocytosis efficiency result in [6] is given as “lower”. The “recruitment efficiency compared to fresh neutrophils” value in data set [7] and in [8] was “reduced recruitment efficiency” each time. Also, the “inflammatory cytokine concentrations (TNF-α, IL-6)” value in data set [9] (inflamed lungs, ELISA) is listed as “unable to reduce inflammatory cytokine concentrations”. In addition, the edema formation result in data set [9] (lung, transfusion of treated neutrophils) is “failed to produce the same protective effect”. Also, the “bacteria-killing capacity in neutropenic recipient mice” value in data set [9] (transfusion of treated neutrophils, 5×10^3 cfu E. coli) was “ineffective”. Also, the BALF protein concentrations result in data set [9] (transfusion of treated neutrophils, compared with fresh neutrophils) is “remained high”. In addition, the “reduction in relative bacterial killing capability” value in [10] is “more than 50%”. In [11] (1 and 2 hours post transfusion), the “recruitment of transfused human neutrophils to the inflamed peritoneal cavity” value is on record as “lower”. Also, the “human neutrophils left in the peritoneal cavity / cell death” value in data set [11] (injected into inflamed peritoneal cavity, each time point) is “faster rates of cell death”. The “phagocytosis efficiency lower than that of fresh human neutrophils” value in data set [11] (pHrodo-E. coli) is given as “about 50%”.
